From patent publication US20120064078A1

Molecular target: intracellular Hsp90α (human) (human) (UniProt P07900)
Test: cell-based or functional assay

“human PP5 in MCF-7 cells (overexpressed from pcDNA3.1/Myc-His(-) or endogenous, knocked down by siRNA) (from UniProt P53041 2-499)” gave a Thr90 phosphorylated Hsp90α (pT90-Hsp90α) level in MCF-7 cells on overexpression of human PP5 (fold of control) of 0.55 and a Thr90 phosphorylated Hsp90α (pT90-Hsp90α) level in MCF-7 cells on siRNA knock-down of human PP5 (fold of control) of 1.58.
